We go through two molecules from article doi:10.1101/2025.09.11.675469.

Read-outs that look alike come from different tables or passages of the source.

In data set [1] the target is T1, LIN28A (UniProt Q9H9Z2 1-209).
T1 sequence: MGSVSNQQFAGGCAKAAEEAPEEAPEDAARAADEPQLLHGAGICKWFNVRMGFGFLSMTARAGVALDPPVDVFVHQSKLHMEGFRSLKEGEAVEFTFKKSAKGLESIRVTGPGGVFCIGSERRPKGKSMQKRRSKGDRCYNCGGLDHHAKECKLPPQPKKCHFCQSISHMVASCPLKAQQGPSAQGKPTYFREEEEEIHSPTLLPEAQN
The data set can be described thus: EMSA. (In general: A gel shift assay detects complexes by their altered migration in electrophoresis.)

The target of data set [2] is T1, LIN28A. The data set can be described thus: EMSA. The source holds these as a separate data set.

B1: HOXB9 original (structured_RNA)
RNA: GGGACAAGUGGUCUGGGACAGGGAGGAGCAAC
For B1, the binding result with LIN28A [1] is “binds”.

B2: HOXB9 m6A (structured_RNA)
RNA: GGGACAAGUGGUCUGGGACAGGGAGGAGCAAC
modifications: one m6A; position marked only by red colour (not recoverable from text)
For the molecule B2, the binding result with LIN28A [2] is “binds”.
